These results are taken from patent US10428140B2, “Anti-EphA4 antibody” (EISAI R&D MANAGEMENT CO., LTD., priority 2015, dated 2019).

What all share (test): Selectivity ELISA of humanized antibodies for human Eph receptor
What all share (type): binding
Conditions in all cases: coated protein 1 nM

One test addresses T1, human EphA6 (Homo sapiens, UniProt Q9UF33).
T1 construct: a protein of the extracellular region of each human Eph receptor fused with the SEAP protein and the His tag; made in house; host or cells: Expi293F cells (culture supernatant)
T1 sequence (Q9UF33 23-550 limits assumed): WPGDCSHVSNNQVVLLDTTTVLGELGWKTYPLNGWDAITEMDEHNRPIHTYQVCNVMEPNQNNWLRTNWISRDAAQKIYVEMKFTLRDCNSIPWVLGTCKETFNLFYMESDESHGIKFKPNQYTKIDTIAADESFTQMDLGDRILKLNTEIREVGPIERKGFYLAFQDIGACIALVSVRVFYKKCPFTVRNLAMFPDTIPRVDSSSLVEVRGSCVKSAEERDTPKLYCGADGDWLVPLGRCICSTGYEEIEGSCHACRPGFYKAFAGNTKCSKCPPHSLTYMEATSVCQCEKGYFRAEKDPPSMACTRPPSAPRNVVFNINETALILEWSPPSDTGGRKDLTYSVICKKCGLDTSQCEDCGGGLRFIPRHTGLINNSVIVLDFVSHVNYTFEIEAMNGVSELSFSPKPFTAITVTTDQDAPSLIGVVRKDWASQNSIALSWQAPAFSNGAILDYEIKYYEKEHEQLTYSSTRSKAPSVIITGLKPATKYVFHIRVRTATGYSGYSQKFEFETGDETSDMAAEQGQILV
From the text:
(§1) According to the method described in Example 7, a DNA sequence encoding the signal sequence and the extracellular region of each human Eph receptor (EphA1, EphA2, EphA3, EphA4, EphA5, EphA6, EphA7, EphA8, EphA10, EphB1, EphB2, EphB3, EphB4, and EphB6) was amplified by RT-PCR using tissue-derived total RNA and cloned into a pENTR1A vector (Invitrogen/Life Technologies) having a DNA sequence encoding SEAP protein and histidine tag. Next, the DNA sequence encoding the signal sequence and the extracellular region of each human Eph receptor, SEAP protein, and histidine tag was transferred to a pcDNA3.1_rfcB vector through LR reaction using Gateway System (Invitrogen/Life Technologies) to construct a vector for the expression of a protein of the extracellular region of each human Eph receptor fused with the SEAP protein and the His tag (referred to as “Eph receptor extracellular region-SEAP-His protein”) (this vector is referred to as “Eph receptor extracellular region-SEAP-His protein expression vector”).
(§2) Next, each human Eph receptor extracellular region-SEAP-His protein expression vector was transferred to Expi293F cells (Gibco/Thermo Fisher Scientific) using Expi293 expression system (Gibco/Thermo Fisher Scientific). After incubation (5% CO2, 37° C.) for 5 days, the culture supernatant was recovered and centrifuged at 1500 rpm at room temperature for 5 minutes. The centrifugation supernatant was filtered through a 0.45-μm filter (Merck Millipore).
(§3) Each anti-EphA4 monoclonal humanized antibody obtained in Example 16 was evaluated for its binding activity against each human Eph receptor according to the following steps.
(§4) Each well of a 96-well plate (Nunc) was coated with a rabbit anti-6-His antibody (Bethyl Laboratories). Each well was […] After washing with 0.05% Tween 20/PBS (Nacalai Tesque) three times, the SEAP-His protein of human EphA1, EphA2, EphA3, EphA4, EphA5, EphA6, EphA7, EphA8, EphA10, EphB1, EphB2, EphB3, EphB4, or EphB6 was added (final concentration: 1 nM) to each well and incubated at room temperature for 1 hour. After washing three times, the humanized antibody was added to each well and incubated at room temperature for 1 hour. After washing three times, a horseradish peroxidase-labeled donkey […] IgG antibody (Jackson ImmunoResearch Laboratories) was added thereto and incubated at room temperature for 1 hour. After washing three times, TMB Microwell Peroxidase Substrate System (Kirkegaard & Perry Laboratories (KPL)) was added to each well. After confirmation of moderate color development, an equal amount of a reaction stopping solution (1N H2SO4, Wako Pure Chemical Industries) was added to each well. The absorbance at 450 nm was read using a microplate reader (Thermo Fisher Scientific).

For another test, the target named is T2, human EphA1 (Homo sapiens, UniProt P21709).
T2 construct: a protein of the extracellular region of each human Eph receptor fused with the SEAP protein and the His tag; made in house; host or cells: Expi293F cells (culture supernatant)
T2 sequence (P21709 26-547 limits assumed): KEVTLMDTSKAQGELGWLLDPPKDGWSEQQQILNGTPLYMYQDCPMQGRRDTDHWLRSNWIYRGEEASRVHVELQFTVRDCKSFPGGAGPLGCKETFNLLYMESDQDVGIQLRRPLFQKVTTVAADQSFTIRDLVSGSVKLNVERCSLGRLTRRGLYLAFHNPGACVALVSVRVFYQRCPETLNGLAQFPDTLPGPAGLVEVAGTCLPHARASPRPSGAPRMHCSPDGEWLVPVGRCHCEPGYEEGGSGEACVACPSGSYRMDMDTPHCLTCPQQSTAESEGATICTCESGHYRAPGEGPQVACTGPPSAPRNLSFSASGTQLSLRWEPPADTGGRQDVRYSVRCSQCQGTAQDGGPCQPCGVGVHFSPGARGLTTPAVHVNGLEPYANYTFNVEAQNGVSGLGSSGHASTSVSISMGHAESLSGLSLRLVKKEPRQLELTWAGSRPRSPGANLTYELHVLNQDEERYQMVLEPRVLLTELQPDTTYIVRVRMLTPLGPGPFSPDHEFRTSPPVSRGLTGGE
Description: as §1, §2, §3, §4

In a further test the target is T3, human EphA10 (Homo sapiens, UniProt Q5JZY3).
T3 construct: a protein of the extracellular region of each human Eph receptor fused with the SEAP protein and the His tag; made in house; host or cells: Expi293F cells (culture supernatant)
T3 sequence (Q5JZY3 34-565 limits assumed): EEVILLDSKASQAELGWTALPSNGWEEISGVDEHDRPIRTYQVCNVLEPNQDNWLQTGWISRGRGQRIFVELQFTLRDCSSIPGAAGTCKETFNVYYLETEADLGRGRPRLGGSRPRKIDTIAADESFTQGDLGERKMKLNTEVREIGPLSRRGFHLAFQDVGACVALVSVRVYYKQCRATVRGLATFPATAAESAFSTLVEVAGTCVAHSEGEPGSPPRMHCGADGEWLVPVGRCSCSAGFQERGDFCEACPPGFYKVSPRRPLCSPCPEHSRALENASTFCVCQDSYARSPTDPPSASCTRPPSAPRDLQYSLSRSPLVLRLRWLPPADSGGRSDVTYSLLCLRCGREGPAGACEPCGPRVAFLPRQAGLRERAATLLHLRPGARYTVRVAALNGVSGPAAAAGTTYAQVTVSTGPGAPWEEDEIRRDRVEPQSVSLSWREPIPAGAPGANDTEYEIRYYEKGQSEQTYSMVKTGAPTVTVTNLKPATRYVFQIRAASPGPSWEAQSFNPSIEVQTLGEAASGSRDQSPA
Description: as §1, §2, §3, §4

B1: 95 (antibody, V domains shown)
VL: EIVMTQSPATLSVSPGERATLSCRASENIYRNLAWYQQKPGQSPRLLIYAATNLADGIPARFSGSGSGTEYTLTISSLQSEDFAVYYCQHFWGTPWTFGQGTKVEIK
VH: QVQLVQSGSELKKPGASVKVSCKASGYTFTDYSMHWVRQAPGQGLEWMGWINTETGEPTYADDFKGRFVFSLDTSVSTAYLQISSLKAEDTAVYYCARIPLYYYGSRYWYFDVWGQGTTVTVSS
modifications: constant regions without entry; synthetic humanized antibody light chain variable region sequence; synthetic humanized antibody heavy chain variable region sequence
B1: the “hEphA6-SEAP-: absorbance at 450 nm, percentage with respect to hEphA4-SEAP-His as 100%” value in the test with human EphA6 was determined as 7.0%. The “hEphA1-SEAP-: absorbance at 450 nm, percentage with respect to hEphA4-SEAP-His as 100%” value with human EphA1 stood at 4.5%. Moreover, the “hEphA10-SEAP-: absorbance at 450 nm, percentage with respect to hEphA4-SEAP-His as 100%” value in the test with human EphA10 is reported as 4.5%.

B2: 96 (antibody, V domains shown)
VL: EIVMTQSPATLSVSPGERATLSCRASENIYRNLAWYQQKPGQSPRLLIYAATNLADGIPARFSGSGSGTEYTLTISSLQSEDFAVYYCQHFWGTPWTFGQGTKVEIK
VH: QVQLVQSGSELKKPGASVKVSCKASGYTFTDYSMHWVRQAPGQGLKWMGWINTETGEPTYADDFKGRFVFSLDTSVSTAYLQISSLKAEDTAVYYCARIPLYYYGSRYWYFDVWGQGTTVTVSS
modifications: constant regions without entry; synthetic humanized antibody light chain variable region sequence; synthetic humanized antibody heavy chain variable region sequence
Turning to B2, the “hEphA6-SEAP-: absorbance at 450 nm, percentage with respect to hEphA4-SEAP-His as 100%” value with human EphA6 was 9.8%. The “hEphA1-SEAP-: absorbance at 450 nm, percentage with respect to hEphA4-SEAP-His as 100%” value with human EphA1 stood at 5.6%. For the same molecule, the “hEphA10-SEAP-: absorbance at 450 nm, percentage with respect to hEphA4-SEAP-His as 100%” value in the test with human EphA10 turned out to be 5.3%.

B3: 140 (antibody, V domains shown)
VH: QVQLVQSGSELKKPGASVKVSCKASGYTFTDYSMHWVRQAPGQGLKWMGWINTETGEPTYAQGFTGRFVFSLDTSVSTAYLQISSLKAEDTAVYYCARIPLYYYGSRYWYFDVWGQGTTVTVSS
VL: DIQMTQSPSSLSASVGDRVTITCRASENIYRNLAWYQQKPGKAPKLLVYAATNLADGVPSRFSGSGSGTDYTLTISSLQPEDFATYYCQHFWGTPWTFGQGTKVEIK
modifications: synthetic humanized antibody heavy chain variable region sequence; synthetic humanized antibody light chain variable region sequence
Consider B3, for which, in the test with human EphA6, the “hEphA6-SEAP-: absorbance at 450 nm, percentage with respect to hEphA4-SEAP-His as 100%” value is given as 10.8%. For the same molecule, the “hEphA1-SEAP-: absorbance at 450 nm, percentage with respect to hEphA4-SEAP-His as 100%” value with human EphA1 was 5.5%. In addition, the “hEphA10-SEAP-: absorbance at 450 nm, percentage with respect to hEphA4-SEAP-His as 100%” value with human EphA10 is listed as 5.2%.

B4: 139 (antibody)
VH: QVQLVQSGSELKKPGASVKVSCKASGYTFTDYSMHWVRQAPGQGLEWMGWINTETGEPTYAQGFTGRFVFSLDTSVSTAYLQISSLKAEDTAVYYCARIPLYYYGSRYWYFDVWGQGTTVTVSS
VL: DIQMTQSPSSLSASVGDRVTITCRASENIYRNLAWYQQKPGKAPKLLVYAATNLADGVPSRFSGSGSGTDYTLTISSLQPEDFATYYCQHFWGTPWTFGQGTKVEIK
chain: ASTKGPSVFPLAPSSRSTSESTAALGCLVKDYFPEPVTVSWNSGALTSGVHTFPAVLQSSGLYSLSSVVTVPSSNFGTQTYTCNVDHKPSNTKVDKTVERKSCVECPPCPAPPAAAPSVFLFPPKPKDTLMISRTPEVTCVVVDVSHEDPEVQFNWYVDGVEVHNAKTKPREEQFNSTFRVVSVLTVVHQDWLNGKEYKCKVSNKGLPAPIEKTISKTKGQPREPQVYTLPPSREEMTKNQVSLTCLVKGFYPSDIAVEWESNGQPENNYKTTPPMLDSDGSFFLYSKLTVDKSRWQQGNVFSCSVMHEALHNHYTQKSLSLSPG
modifications: synthetic humanized antibody heavy chain variable region sequence; synthetic humanized antibody light chain variable region sequence; synthetic antibody constant region sequence
For the molecule B4, in the test with human EphA6, the “hEphA6-SEAP-: absorbance at 450 nm, percentage with respect to hEphA4-SEAP-His as 100%” value was found to be 10.0%. Further, in the test with human EphA1, the “hEphA1-SEAP-: absorbance at 450 nm, percentage with respect to hEphA4-SEAP-His as 100%” value turned out to be 5.7%. In addition, the “hEphA10-SEAP-: absorbance at 450 nm, percentage with respect to hEphA4-SEAP-His as 100%” value in the test with human EphA10 is 5.5%.

B5: 73 (antibody, V domains shown)
VH: QIQLVQSGSELKKPGASVKVSCKASGYTFTDYSMHWVRQAPGQGLKWMGWINTETGEPTYADDFKGRFVFSLDTSVSTAYLQISSLKAEDTAVYYCARIPLYYYGSRYWYFDVWGQGTTVTVSS
VL: EIVMTQSPATLSVSPGERATLSCRASENIYRNLAWYQQKPGQSPRLLIYAATNLADGIPARFSGSGSGTEYTLTISSLQSEDFAVYYCQHFWGTPWTFGQGTKVEIK
modifications: synthetic humanized antibody heavy chain variable region sequence; synthetic humanized antibody light chain variable region sequence
For B5, the “hEphA6-SEAP-: absorbance at 450 nm, percentage with respect to hEphA4-SEAP-His as 100%” value in the test with human EphA6 stood at 7.4%. For the same molecule, the “hEphA1-SEAP-: absorbance at 450 nm, percentage with respect to hEphA4-SEAP-His as 100%” value with human EphA1 worked out at 6.0%. Further, the “hEphA10-SEAP-: absorbance at 450 nm, percentage with respect to hEphA4-SEAP-His as 100%” value in the test with human EphA10 worked out at 5.6%.
